Reference: US20240254195A1 (35PHARMA, published 2024)

How the values were obtained:
Assay in all cases: cell-based or functional assay
[1] = biological target: T1, recombinant human activin A (human, UniProt P08476 311-426)
T1 sequence (looked up): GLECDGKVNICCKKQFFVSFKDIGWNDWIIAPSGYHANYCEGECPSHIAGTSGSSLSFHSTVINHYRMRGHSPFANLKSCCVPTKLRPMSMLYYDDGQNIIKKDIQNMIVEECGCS

activin B = biological target: T2, activin B (UniProt P09529 293-407)
T2 sequence (looked up): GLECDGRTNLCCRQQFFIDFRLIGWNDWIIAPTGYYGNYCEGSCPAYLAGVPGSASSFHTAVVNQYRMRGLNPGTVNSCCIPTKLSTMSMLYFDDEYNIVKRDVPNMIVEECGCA

GDF-8 = biological target: T3, GDF-8 (UniProt O14793 267-375)
T3 sequence (looked up): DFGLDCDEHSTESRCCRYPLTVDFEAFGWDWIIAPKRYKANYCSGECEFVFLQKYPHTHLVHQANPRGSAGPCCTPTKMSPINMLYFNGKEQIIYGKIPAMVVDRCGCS

GDF-11 = biological target: T4, GDF-11 (UniProt O95390 299-407)
T4 sequence (looked up): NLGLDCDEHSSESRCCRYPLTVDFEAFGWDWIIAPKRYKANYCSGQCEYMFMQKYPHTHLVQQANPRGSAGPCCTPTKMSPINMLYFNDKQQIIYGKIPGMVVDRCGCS

BMP-9 = biological target: T5, BMP-9 (UniProt Q9UK05 320-429)
T5 sequence (looked up): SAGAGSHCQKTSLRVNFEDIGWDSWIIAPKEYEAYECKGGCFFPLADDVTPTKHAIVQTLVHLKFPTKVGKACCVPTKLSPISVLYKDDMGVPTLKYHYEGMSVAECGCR

BMP-10 = biological target: T6, BMP-10 (UniProt O95393 317-424)
T6 sequence (looked up): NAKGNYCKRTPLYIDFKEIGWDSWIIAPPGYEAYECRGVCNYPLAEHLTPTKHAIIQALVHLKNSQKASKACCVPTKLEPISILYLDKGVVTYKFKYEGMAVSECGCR

B1: P1372 (Fc fusion)
chain: ETRECIYYNANWELERTNQSGLERCEGEQDKRWHCYASWRNSSGTIELVKKGCWLDDFNCYDRQECVATEENPQVYFCCCEGNFCNERFTHLPEAGGPEVTYEPPPTGGGGSGGGGSGGGGTHTCPPCPAPELLGGPSVFLFPPKPKDTLYITREPEVTCVVVDVSHEDPEVKFNWYVDGVEVHNAKTKPREEQYNSTYRVVSVLTVLHQDWLNGKEYKCKVSNKALPAPIEKTISKAKGQPREPQVYTLPPSRDELTKNQVSLTCLVKGFYPSDIAVEWESNGQPENNYKTTPPVLDSDGSFFLYSKLTVDKSRWQQGNVFSCSVMHEALHNHYTQKSLSLSPG
Activin A IC50 [1]: 0.56 nM
Activin B IC50 (activin B): 2 nM
GDF-8 IC50 (GDF-8): 0.18 nM
GDF-11 IC50 (GDF-11): 0.53 nM
BMP-9 IC50 (BMP-9): > 1000 nM
BMP-10 IC50 (BMP-10): > 100 nM

B2: P1375 (Fc fusion)
chain: ETRECIYYNANWELERTNQSGLERCEGEQDKRWHCYASWRNSSGTIELVKKGCWLDDFNCYDRQECVATEENPQVYFCCCEGNFCNERFTHLPEAGGPEVTYEPPPTGGGGSGGGGSGGGGSGGGGTHTCPPCPAPELLGGPSVFLFPPKPKDTLYITREPEVTCVVVDVSHEDPEVKFNWYVDGVEVHNAKTKPREEQYNSTYRVVSVLTVLHQDWLNGKEYKCKVSNKALPAPIEKTISKAKGQPREPQVYTLPPSRDELTKNQVSLTCLVKGFYPSDIAVEWESNGQPENNYKTTPPVLDSDGSFFLYSKLTVDKSRWQQGNVFSCSVMHEALHNHYTQKSLSLSPG
Activin A IC50 [1]: 0.53 nM
Activin B IC50 (activin B): 2 nM
GDF-8 IC50 (GDF-8): 0.33 nM
GDF-11 IC50 (GDF-11): 0.39 nM
BMP-9 IC50 (BMP-9): > 1000 nM
BMP-10 IC50 (BMP-10): > 100 nM
